Measurements published in a protein production outcome set (Wang et al. 2014).

Assay: label from the status in PepcDB records

| Sequence | protein production |
| --- | --- |
| MISRHLQNNLMSVDPASSQAMELSDVTLIEGVGNEVMVVAGVVVLILALVLAWLSTYVADSGSNQLLGAIVSAGDTSVLHLGHVDHLVAGQGNPEPTELPHPSEGNDEKAEEAGEGRGDSTGEAGAGGGVEPSLEHLLDIQGLPKRQAGAGSSSPEAPLRSEDSTCLPPSPGLITVRLKFLNDTEELAVARPEDTVGALKSKYFPGQESQMKLIYQGRLLQDPARTLRSLNITDNCVIHCHRSPPGSAVPGPSASLAPSATEPPSLGVNVGSLMVPVFVVLLGVVWYFRINYRQFFTAPATVSLVGVTVFFSFLVFGMYGR | failed |
| MISRNLKIYFRDRTAVFMSLLTVLIIIGLYAIFLGNNMEEMFKQASGKTVGIQELVNTWVIAGILSITPVTVSLAVFSLKVHDEELSIARSFAITSASRWRIVISYIVSGLVASFLLSVITLFVGEMYIWLTGGEFLPFESWIRLIGIILINVLCCSSIMFFIASLVKKASAFSSVSTIVGTVIGFIAGIYLPIGSLPAAVQTAMKCFPFTYGASTIREIMTKEPLKEVFAGNTGAMDATKEMIGITIYWGDKTVTTGLSLLILSAFAVVFGVLSVILMKRQTK | failed |
| MISSLTTIISTGTNLGSGTDDDIYFGIHLNNGQKKEWLLDKETYNDFENGATDEYYLYINDMDFLPTMVDKVWVRKNSTGSFAGNWFFKALRIDANGNDVLSVSPNEWITDLEHHHHHH | not failed |
| MISSMNFWRCRCSKDDAEQSMLYSYNNGFLGFSAKLNSTQAASLAKLNQVITVFKSKSLKLHTTRSWDFLGLAVDNARRTPPPQLAYGSDIVVGIFDTGLFISLKLLLLSILGIWPESESFRETPEAKPIPSSWNGKCVGGEDFDPSVHCNRKLIGARFYLRGFEETYGTIDFTRDPEYRSPRDYLGHGTHTASTAVGSVVRNVSGFFGLGRGTARGGAPLARLAVFKTCWGKDLEGVCTEADILAAFDDAIHDGVHVISASFGYSPPLSPFFESSADIGAFHAAERGISVVFSTGNDGPDPGVVQNVAPWAVSVAASTVDRSFPTRIVIDGSFTLTGQSLISQEITGTLALATTYFNGGVCKWENWMKKLANETIILCFSTLGPVQFIEEAQAAAIRANALALIFAASPTRQLAEEVDMIPTVRVDILHGTRIRNYLARSPTVPMVKIGPSKTVIGETTAPSVAYFSSRGPSSLSPDILKPDITAPGIGILAAWPPRTPPTLLPGDHRSIEWNFQSGTSMSCPHVAGVMALLQSAHPDWSPSAIRSAIMTTAYTRDTSYDLILSGGSMKSTDPFDIGAGHINPLKAMDPGLVYNTRTDDYVLFMCNIGYTDQEIKSMVLHPEPSTTCLPSHSYRTNADFNYPSITIPSLRLTRTIKRTVSNVGPNKNTVYFVDIIRPVGVEVLIWPRILVFSKCQQEHSYYVTFKPTEIFSGRYVFGEIMWTNGLHRVRSPVVVFLSNAGFLASS | failed |
| MISTTTVSDLYITFGLIGVFLAGMIAVLYATNRKSDSFSDYAVGGRSYGPWFIAMCYTNSWWPGATFTAFFALSVGGALGFYGMVYATLGVTAMYLMANRAWTWGKRFNLTTQPDLLGMRFNSPVVKRIASIIGIISVFPWVVMGIQALATLFQFASFGRWGVTTCLLVGVAVILIRQYWTVSMGMRGLIMTDMYQGLIAYVLCAALCIFLMFGAQASFSNLSQLPASMLVIPGGTGSTYGPMYMFSLIFTGVIGSMCWPMSFQRIYTASGVRSVKKGTLLTILLVGGFYGILMLFAAAISQDPNVAAHPQHGWFLSLFDIGGPWLLAVAIMIVLAASIGHVDGCVQVCGTQFANDLATWNTPRSDREKTILAKAGMVVFIAAASLLAYLTFDYARLQLLAQISYQGIIQLAVPLFFGVFSRRGNKQGAIVGMLVGIVIAIVLTTIYPDDIPGLGSLTSGIVGLIFNAGIFVACAVAIKPSAEEVRRVDELFAMAAPQRHPAGVAPVMS | failed |
| MISVFDIYKIGVGPSSSHTVGPMKAGKEFIDDLRAMGKLRDITKITVDVYGSLSLTGKGHHTDIAIIMGLAGNSPEKVDIDSIPGFIARVEETERLPVGMHCHTVSFPREGGMNFHKTNLELHENGMQIHAWIDDEKVYSKTYYSIGGGFIVDEENFGK | not failed |
| MISVGKGKIMITPDHNIIKPIAIVLPQFHPIRENNLWWGEGFTEWTNVVKGRPRFRGHYQPHLPKDLGYYDLRLPETRKAQAALATKYGIYGFCYYHYWFNGRRILESPVDAMLESGEPDFPFMLCWANENWTRNWDGSYNKVLLEQKYSKEDFVNHARHLIRYFKDDRYIKIDGRPVFAIYKDDIGEDIEKYLLLFRNELLKNSINVFLCRFERNIGTSRDLNRAFQVFDAGIEFQPLARQFSYLINYNNRLSRRIYKTLKKHFCFCKNIDDVYVYSHLVDNDLKYDFQQGWPIFPGVCPGWDNSARRRDTTAIIFDKSTPEIFKLWVREKIRITDWNLLPERFLFVNAWNEWAEGNHLEPCEKWGTQYLAALQAGINEM | failed |
| MISVTAYEWIGLFIGMIIGGLAEAWGISNPEVLIRLGKWEDRLFIGCIAIAIGAGAIVLYGLSALGVSFHWGIKPDYVIGVALGGIIFGTGIAISGYVPGTVWMALGEGRRDAIYAVLGGLLGAASWTLIYQTSFGHWLTTYLNFGQIYFGGKVGTDLKLGFIIAIVWAIIMFVIAYTLPRYRKGKSCAYLSTHKNYKLDAEEEKEYIETANFLMEGTSMPIGKNNLPEKVNYHWTVSSKLFGVTMLSVGIIIGLTVVLEMFLHQIFGESTTYSWIVAQIWLPAGYWQYSTIVVHTIGWEPFSDIGTLFGAFLASIFFTRRFQAFSNVIPPSWKERFGNSQIKRAAGAFSGAYLMLLGARMADGCASGHILSGDLQMAVSSLEFFIFVVIFLLLVAHIIYRR | failed |
| MISVVGAGGKTSLLFWLAELLQASGRRVLITTTTHMFMPTSHWPVVFCRDPAMLPHASLTSPISFCFHSWKANQGKVQGFTPEAIDALVQRPECDVILIEADGSRGMPLKAPDEHEPCIPKSSCCVIAVMGGHTLGAKVSTENVHRWSQFADITGLTPDATLQLSDLVALVRHPQGAFKNVPQGCRRVWFINRFSQCENAIAQSELLQPLQQHDVEAIWLGDIQEHPAIARRFVNLEHHHHHH | not failed |
| MISVVIPLFNKAPHIVRAVESVLEQSSPADEIIVVDDGSTDGGGELLLPYVAKHGVRLIRQENAGVSVARNHGVNLAASDYVAFLDADDFWLPNHIATLRRLIDNYPEASLFSTALIIERDGRQWRSKSTYSDGWEGVVQDFFTEYLRRFALVSSTTSCVRKKDFCSIGGFPVGVKYGEDFICWMKMALFYRVAHAEVVTAVYCLDAVNRTDQLQETDVLAPLQFIAKLLQSNELDNAQRVGLAQLFDHISFSTGARFRINSNLNGVNAIRNLSWEMGHYRVSLLMSALRFTPSLLLQAAKRFRYRQVSVV | failed |
| MITIENSKFKAGIAERGAELQSLVNKADNYEYVWTGDKTFWNRHAPILFPSIGKSNQDQYRLGAKTYPMSQHGFARDYDFDVSDKSDSAVTFTQHQNAETLKKFPFEYTLAVTYMLTDGGLSVHYTVTNDDSKSMPFALGFHPAFNVGLKADGSFDDYDLTVEPLNSPLQRFGIGPVPFRNGDVEDIPGAEGNRLPLTHDLLDGGLVILANSEIAKATLASPHHDHSITLDISDFPYLTIWSPEHKKAPFIAVEPFDGLPDQAGEPTDWYTKLGNTTLSAGANKQLALKVELHLEHHHHHH | failed |
| MITIRNKIGQMLIMGFHGSELHDNSPVAQWLSNDGLGGVLLFDKDLSTGIYGKNLRNQAQIKQLIRQLNRYASMISGGNDNLPLFTAIDYEGGVVDRLSKIEGCPPTMKARELAKLSSDDFDEEVTQMAMTLQSLGFNLNFAPVVDLNLNAHAGIIGNLGRSFSSNPEVTIRLAKQFVDVFSRYGIACAYKHFPGHGSATGDTHEGFVDVTETFQTDELIPYRSLLKDLSNPFMVMTAHVINKHLDSKGLPATLSYDVLTLLLRQSIGYDGVIISDDLQMHAISNHYSLEDALCLTINAGADMVIFANQLGTITPPEVIDVIEKLVIDKQIPYQRIDEAYRRIVRLKQQIICSELINT | failed |
| MITKDVKEQLIQVSGPENFDDSNAGRLVYSYDATPQYQSMPDAVIAPRNTDEISRILTICSEHRVPIVPRGSGTNLCGGTCPTEGGLVLLFKHMNQILEIDEENLTATVQPGVITLDMIRAVESKGLFYPPDPSSMKISTIGGNINENSGGLRGLKYGVTRDYVIGLEVVLANGDIIRTGGKLAKDVAGYDLTRLFVGSEGTLGIVTEAIVKLVPKPETKKTLLALYENIDAAAQTVSDIIAAKIIPATLEFLDQPTLLVIEDYAKIGLPTSAKAVLLIEQDGPFETVERDMEKIEAICKKGDAVSVQTAQTEEEAFALTEARRSALSALARLKPTTILEDATVPRSEIANMVKAINDIAAKYDISICTFGHAGDGNLHPTCTTDIRNKDEMERVEQAFAEIFEKAIELGGTITGEHGVGEMKAPYLEMKLKKEGIDAMKALKAAFDPRNILNPGKMFAKDARKRVVAER | failed |
